Among the data in PMC9482650, “Quantitative fragmentomics allow affinity mapping of interactomes” (Nature Communications, 2022) are pKd values, retold here.

Targets include Inadl_4, Q8NI35; MAGI2_5, Q86UL8; DLG4_1, P78352; Inadl_3, Q8NI35; DLG1_3, Q12959; DLG1_1, Q12959; MAGI1_2, Q96QZ7; Inadl_9, Q8NI35.
What all share (experiment): holdup assay
What all share (parameters): key: below the threshold = too weak to quantify, mostly under pKd 3.1 to 4

In another assay the target is T1, LIN7C, Q9NUP9.
T1 sequence (Q9NUP9 88-185, limits assumed, looked up): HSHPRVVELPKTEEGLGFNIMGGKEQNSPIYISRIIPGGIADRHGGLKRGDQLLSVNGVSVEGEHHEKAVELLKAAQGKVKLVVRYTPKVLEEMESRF

The target in a further assay is T2, DFNB31_3, Q9P202.
T2 sequence (Q9P202 811-907, limits assumed, looked up): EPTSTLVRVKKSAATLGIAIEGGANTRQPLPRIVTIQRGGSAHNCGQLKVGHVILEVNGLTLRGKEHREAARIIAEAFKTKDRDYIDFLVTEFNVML

The next assay has as its target T3, TIAM2, Q8IVF5.
T3 sequence (Q8IVF5 885-986, limits assumed, looked up): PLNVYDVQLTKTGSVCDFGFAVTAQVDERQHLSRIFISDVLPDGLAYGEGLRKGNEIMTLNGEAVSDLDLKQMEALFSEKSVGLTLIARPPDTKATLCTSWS

For a further assay, the target named is T4, GRIP1_3, Q9Y3R0.
T4 sequence (Q9Y3R0 247-346, limits assumed, looked up): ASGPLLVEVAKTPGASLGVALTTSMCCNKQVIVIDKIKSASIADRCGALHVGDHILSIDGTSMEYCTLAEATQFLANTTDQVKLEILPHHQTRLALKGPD

The target in another assay is T5, RAPGEF6, Q8TEU7.
T5 sequence (Q8TEU7 525-625, limits assumed, looked up): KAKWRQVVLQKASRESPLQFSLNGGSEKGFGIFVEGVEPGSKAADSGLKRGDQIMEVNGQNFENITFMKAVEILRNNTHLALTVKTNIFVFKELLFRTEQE

The target in another assay is T6, SYNJ2BP, P57105.
T6 sequence (P57105 8-110, limits assumed, looked up): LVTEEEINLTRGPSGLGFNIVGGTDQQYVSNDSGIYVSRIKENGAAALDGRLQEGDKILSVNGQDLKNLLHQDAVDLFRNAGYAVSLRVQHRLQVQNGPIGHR

The next assay has as its target T7, APBA2_2, Q99767.
T7 sequence (Q99767 654-744, limits assumed, looked up): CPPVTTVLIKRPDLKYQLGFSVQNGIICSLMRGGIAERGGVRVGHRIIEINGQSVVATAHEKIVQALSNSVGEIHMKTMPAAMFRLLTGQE

A further assay concerns the target T8, GRIP1_2, Q9Y3R0.
T8 sequence (Q9Y3R0 145-248, limits assumed, looked up): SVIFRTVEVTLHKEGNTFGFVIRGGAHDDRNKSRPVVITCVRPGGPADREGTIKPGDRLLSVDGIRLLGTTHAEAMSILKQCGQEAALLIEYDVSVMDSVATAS

A further assay deals with T9, TX1BP3, O14907.
T9 sequence (O14907 10-122, limits assumed, looked up): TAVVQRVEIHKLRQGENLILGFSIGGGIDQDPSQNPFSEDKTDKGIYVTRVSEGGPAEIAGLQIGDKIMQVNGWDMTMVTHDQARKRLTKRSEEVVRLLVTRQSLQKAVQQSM

Another assay concerns the target T10, APBA2_1, Q99767.
T10 sequence (Q99767 563-664, limits assumed, looked up): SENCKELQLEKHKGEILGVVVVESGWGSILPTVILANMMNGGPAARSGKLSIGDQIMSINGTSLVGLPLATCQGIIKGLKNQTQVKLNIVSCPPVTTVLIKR

A further assay has as its target T11, SNTA1, Q13424.
T11 sequence (Q13424 82-180, limits assumed, looked up): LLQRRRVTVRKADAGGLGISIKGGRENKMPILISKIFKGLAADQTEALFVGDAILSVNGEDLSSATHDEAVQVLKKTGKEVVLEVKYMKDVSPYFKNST

For a further assay, the target named is T12, APBA1_1, Q02410.
T12 sequence (Q02410 651-752, limits assumed, looked up): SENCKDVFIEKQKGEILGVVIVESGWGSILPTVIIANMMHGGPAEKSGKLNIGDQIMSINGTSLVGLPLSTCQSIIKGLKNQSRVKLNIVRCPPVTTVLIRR

In another assay the target is T13, HTRA4, P83105.
T13 sequence (P83105 378-476, limits assumed, looked up): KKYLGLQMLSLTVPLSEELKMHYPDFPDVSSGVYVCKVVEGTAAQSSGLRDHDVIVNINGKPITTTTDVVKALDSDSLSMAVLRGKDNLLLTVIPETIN

A further assay concerns the target T14, PDZD7_3, Q9H5P4.
T14 sequence (Q9H5P4 857-944, limits assumed, looked up): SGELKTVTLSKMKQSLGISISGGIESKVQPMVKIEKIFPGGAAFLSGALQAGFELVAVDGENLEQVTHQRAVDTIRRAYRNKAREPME

Setting [1] is: plain residues with an end cap or a label only (N-terminal biotin on a linker: ahx).
The mark [2] stands for this setting: plain residues with an end cap or a label only (N-terminal biotin on a linker: ttds).
The mark [3] stands for this setting: plain residues with an end cap or a label only (N-terminal biotin on a linker: ado-ado).

Chain of MAGI2_5, Q86UL8 (Q86UL8 915-1017): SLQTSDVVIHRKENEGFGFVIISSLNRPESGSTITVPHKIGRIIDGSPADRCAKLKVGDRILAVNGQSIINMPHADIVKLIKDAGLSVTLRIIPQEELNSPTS
Chain of Inadl_4, Q8NI35 (Q8NI35 547-651): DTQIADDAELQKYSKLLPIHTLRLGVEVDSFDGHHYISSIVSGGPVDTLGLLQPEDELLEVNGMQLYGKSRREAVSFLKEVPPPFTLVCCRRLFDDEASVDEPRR
Chain of DLG4_1, P78352 (P78352 62-152): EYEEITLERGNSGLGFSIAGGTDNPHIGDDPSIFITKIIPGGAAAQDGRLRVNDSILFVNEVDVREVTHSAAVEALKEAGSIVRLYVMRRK
Chain of Inadl_3, Q8NI35 (Q8NI35 359-469): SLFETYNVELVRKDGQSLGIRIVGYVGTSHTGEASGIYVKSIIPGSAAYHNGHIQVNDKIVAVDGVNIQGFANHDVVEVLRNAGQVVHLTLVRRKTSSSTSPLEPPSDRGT
Chain of MAGI1_2, Q96QZ7 (Q96QZ7 456-580): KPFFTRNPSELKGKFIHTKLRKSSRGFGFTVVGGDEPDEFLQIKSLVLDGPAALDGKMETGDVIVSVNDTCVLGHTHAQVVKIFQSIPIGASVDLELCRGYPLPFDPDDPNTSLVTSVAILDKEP
Chain of Inadl_9, Q8NI35 (Q8NI35 1530-1615): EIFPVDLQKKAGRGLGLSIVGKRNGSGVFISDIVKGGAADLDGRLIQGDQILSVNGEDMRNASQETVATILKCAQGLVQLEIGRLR

The pKd is −log10 of the Kd, conventionally taken in molar units. As for HNAFLSVTTV [PDZRN4, Q6ZMN7], the negative-log Kd (pKd) result in the assay with Inadl_4, Q8NI35 (setting [1]) was “below the threshold”; with LIN7C, Q9NUP9 (setting [1]) it was 3.68; with DFNB31_3, Q9P202 (setting [1]) it was “below the threshold”; with TIAM2, Q8IVF5 (setting [1]), “below the threshold”; in the assay with GRIP1_3, Q9Y3R0 (setting [1]), “below the threshold”; with MAGI2_5, Q86UL8 (setting [1]), “below the threshold”. Further, the pKd result is “below the threshold” in the assay with RAPGEF6, Q8TEU7 (setting [1]); “below the threshold” in the assay with SYNJ2BP, P57105 (setting [1]); “below the threshold” with DLG4_1, P78352 (setting [1]); “below the threshold” in the assay with APBA2_2, Q99767 (setting [1]); 3.66 with Inadl_3, Q8NI35 (setting [1]); “below the threshold” in the assay with DLG1_3, Q12959 (setting [1]). For the same molecule, the negative logarithm of the Kd (pKd) entry with GRIP1_2, Q9Y3R0 (setting [1]) is “below the threshold”; with TX1BP3, O14907 (setting [1]), “below the threshold”; with APBA2_1, Q99767 (setting [1]), 3.69; with SNTA1, Q13424 (setting [1]) it was 3.56; with DLG1_1, Q12959 (setting [1]) it was 3.54; with APBA1_1, Q02410 (setting [1]) it was 3.49. Moreover, the negative logarithm of the Kd (pKd) entry was “below the threshold” with HTRA4, P83105 (setting [1]); 3.61 with MAGI1_2, Q96QZ7 (setting [1]); 4.71 with PDZD7_3, Q9H5P4 (setting [1]); “below the threshold” with Inadl_9, Q8NI35 (setting [1]).

Turning to NRKREIFSNF [NHERF2, Q15599], the negative logarithm of the Kd (pKd) entry in the assay with Inadl_4, Q8NI35 (setting [1]) was “below the threshold”; in the assay with LIN7C, Q9NUP9 (setting [1]) it was “below the threshold”; with DFNB31_3, Q9P202 (setting [1]), “below the threshold”; in the assay with TIAM2, Q8IVF5 (setting [1]) it was “below the threshold”; in the assay with GRIP1_3, Q9Y3R0 (setting [1]), “below the threshold”; in the assay with MAGI2_5, Q86UL8 (setting [1]), “below the threshold”. Also, the pKd entry is “below the threshold” with RAPGEF6, Q8TEU7 (setting [1]); “below the threshold” with SYNJ2BP, P57105 (setting [1]); “below the threshold” with DLG4_1, P78352 (setting [1]); “below the threshold” in the assay with APBA2_2, Q99767 (setting [1]); “below the threshold” with Inadl_3, Q8NI35 (setting [1]); “below the threshold” with DLG1_3, Q12959 (setting [1]). The negative-log Kd (pKd) entry in the assay with GRIP1_2, Q9Y3R0 (setting [1]) is recorded as “below the threshold”; with TX1BP3, O14907 (setting [1]) it was “below the threshold”; with APBA2_1, Q99767 (setting [1]), “below the threshold”; with SNTA1, Q13424 (setting [1]), “below the threshold”; in the assay with DLG1_1, Q12959 (setting [1]), “below the threshold”; with APBA1_1, Q02410 (setting [1]), “below the threshold”. Further, the pKd result with HTRA4, P83105 (setting [1]) is given as “below the threshold”; with MAGI1_2, Q96QZ7 (setting [1]) it was “below the threshold”; with PDZD7_3, Q9H5P4 (setting [1]), “below the threshold”; with Inadl_9, Q8NI35 (setting [1]), “below the threshold”.

For the molecule EVVHTPETSV [SLC16A3, O15427], the negative-log Kd (pKd) result with Inadl_4, Q8NI35 (setting [2]) was “below the threshold”; with LIN7C, Q9NUP9 (setting [2]), 4.07; in the assay with DFNB31_3, Q9P202 (setting [2]) it was “below the threshold”; in the assay with TIAM2, Q8IVF5 (setting [2]), “below the threshold”; with GRIP1_3, Q9Y3R0 (setting [2]) it was “below the threshold”; in the assay with MAGI2_5, Q86UL8 (setting [2]), “below the threshold”. Moreover, the pKd result is “below the threshold” with RAPGEF6, Q8TEU7 (setting [2]); 4.78 in the assay with SYNJ2BP, P57105 (setting [2]); 3.9 in the assay with DLG4_1, P78352 (setting [2]); “below the threshold” with APBA2_2, Q99767 (setting [2]); “below the threshold” with Inadl_3, Q8NI35 (setting [2]); 4.1 with DLG1_3, Q12959 (setting [2]). Further, the pKd entry was “below the threshold” with GRIP1_2, Q9Y3R0 (setting [2]); 3.84 in the assay with TX1BP3, O14907 (setting [2]); “below the threshold” in the assay with APBA2_1, Q99767 (setting [2]); 4.69 with SNTA1, Q13424 (setting [2]); 3.87 in the assay with DLG1_1, Q12959 (setting [2]); “below the threshold” with APBA1_1, Q02410 (setting [2]). Besides, the pKd result in the assay with HTRA4, P83105 (setting [2]) was “below the threshold”; with MAGI1_2, Q96QZ7 (setting [2]), “below the threshold”; with PDZD7_3, Q9H5P4 (setting [2]), 4.45; with Inadl_9, Q8NI35 (setting [2]) it was “below the threshold”.

For the molecule PLSPEQPTKL [TRIM50, Q86XT4], the negative logarithm of the Kd (pKd) result with Inadl_4, Q8NI35 (setting [3]) was “below the threshold”; with LIN7C, Q9NUP9 (setting [3]), 3.82; in the assay with DFNB31_3, Q9P202 (setting [3]) it was 3.93; with TIAM2, Q8IVF5 (setting [3]) it was “below the threshold”; with GRIP1_3, Q9Y3R0 (setting [3]), “below the threshold”; with MAGI2_5, Q86UL8 (setting [3]), “below the threshold”. Moreover, the negative-log Kd (pKd) entry in the assay with RAPGEF6, Q8TEU7 (setting [3]) is reported as “below the threshold”; with SYNJ2BP, P57105 (setting [3]), “below the threshold”; in the assay with DLG4_1, P78352 (setting [3]), “below the threshold”; with APBA2_2, Q99767 (setting [3]) it was “below the threshold”; with Inadl_3, Q8NI35 (setting [3]) it was “below the threshold”; with DLG1_3, Q12959 (setting [3]), “below the threshold”. Also, the negative logarithm of the Kd (pKd) result in the assay with GRIP1_2, Q9Y3R0 (setting [3]) was “below the threshold”; in the assay with TX1BP3, O14907 (setting [3]), “below the threshold”; in the assay with APBA2_1, Q99767 (setting [3]) it was “below the threshold”; with SNTA1, Q13424 (setting [3]), “below the threshold”; in the assay with DLG1_1, Q12959 (setting [3]), “below the threshold”; with APBA1_1, Q02410 (setting [3]), “below the threshold”. Further, the pKd with HTRA4, P83105 (setting [3]) was 3.75; with MAGI1_2, Q96QZ7 (setting [3]), “below the threshold”; in the assay with PDZD7_3, Q9H5P4 (setting [3]), 4.04; with Inadl_9, Q8NI35 (setting [3]) it was “below the threshold”.

Take RRRKRKRTYL [HPV49-L2, P36762]: the negative-log Kd (pKd) entry is “below the threshold” in the assay with Inadl_4, Q8NI35 (setting [1]); “below the threshold” in the assay with LIN7C, Q9NUP9 (setting [1]); 4.25 with DFNB31_3, Q9P202 (setting [1]); “below the threshold” in the assay with TIAM2, Q8IVF5 (setting [1]); “below the threshold” with GRIP1_3, Q9Y3R0 (setting [1]); “below the threshold” with MAGI2_5, Q86UL8 (setting [1]). In addition, the pKd result with RAPGEF6, Q8TEU7 (setting [1]) is “below the threshold”; in the assay with SYNJ2BP, P57105 (setting [1]), “below the threshold”; in the assay with DLG4_1, P78352 (setting [1]), 3.62; with APBA2_2, Q99767 (setting [1]), “below the threshold”; in the assay with Inadl_3, Q8NI35 (setting [1]), 3.72; with DLG1_3, Q12959 (setting [1]) it was 3.65. For the same molecule, the pKd entry with GRIP1_2, Q9Y3R0 (setting [1]) is “below the threshold”; with TX1BP3, O14907 (setting [1]) it was 3.48; in the assay with APBA2_1, Q99767 (setting [1]), “below the threshold”; with SNTA1, Q13424 (setting [1]), 3.69; with DLG1_1, Q12959 (setting [1]) it was 3.49; in the assay with APBA1_1, Q02410 (setting [1]), 3.71. Moreover, the negative-log Kd (pKd) was 3.66 with HTRA4, P83105 (setting [1]); 5.71 with MAGI1_2, Q96QZ7 (setting [1]); 4.31 with PDZD7_3, Q9H5P4 (setting [1]); “below the threshold” in the assay with Inadl_9, Q8NI35 (setting [1]).
